Test results reported in patent publication US20090214428A1.

Biological target: HeV G envelope glycoprotein (on effector cells expressing HeV F and G, or on infectious HeV) (Hendra virus) (UniProt O89343)
Assay: cell-based or functional assay

Sequence of HeV G envelope glycoprotein (on effector cells expressing HeV F and G, or on infectious HeV) (Hendra virus) (O89343 whole entry): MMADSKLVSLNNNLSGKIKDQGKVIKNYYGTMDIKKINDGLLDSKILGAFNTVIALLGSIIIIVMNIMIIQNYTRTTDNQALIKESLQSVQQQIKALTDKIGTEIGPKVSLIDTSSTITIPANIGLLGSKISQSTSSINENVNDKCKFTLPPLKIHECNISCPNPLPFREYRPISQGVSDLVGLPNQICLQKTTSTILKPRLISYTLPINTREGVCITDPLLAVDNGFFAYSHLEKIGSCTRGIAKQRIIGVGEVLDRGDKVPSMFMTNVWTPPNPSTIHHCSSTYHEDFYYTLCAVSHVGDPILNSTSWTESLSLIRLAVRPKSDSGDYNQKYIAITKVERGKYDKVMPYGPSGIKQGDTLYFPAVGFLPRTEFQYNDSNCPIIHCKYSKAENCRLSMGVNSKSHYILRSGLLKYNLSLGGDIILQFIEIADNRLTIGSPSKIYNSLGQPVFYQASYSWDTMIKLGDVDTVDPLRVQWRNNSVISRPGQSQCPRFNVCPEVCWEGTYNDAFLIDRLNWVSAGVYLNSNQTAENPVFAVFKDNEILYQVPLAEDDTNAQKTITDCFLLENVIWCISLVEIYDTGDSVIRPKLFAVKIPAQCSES

Question: Which syncytia per complete photograph view, control antibody (17 without antibody) (syncytia per view) does the source give for Fab X5 here?
Answer: 20
